B1: NRSE dsRNA (dsRNA)
RNA 1: UUCAGCACCACGGACAGCGCC
RNA 2: GGCGCUGUCCGUGGUGCUGAA
B2: NRSE/RE1 dsDNA (dsDNA)
DNA 1: TTCAGCACCACGGACAGCGCC
DNA 2: GGCGCTGTCCGTGGTGCTGAA

Target: Bovine serum albumin (Bos taurus, UniProt P02769 P02769:25-607)
Assay: EMSA; BSA control
Method: To compare the affinity between NRSE dsDNA and NRSE dsRNA to NRSF/REST protein, an electrophoretic mobility shift assay (EMSA) was performed. NRSF/REST with cMyc-tag was expressed in 293T cells and immunoprecipitated with anti-cMyc antiboby. After purification, the protein was incubated with either NRSE dsDNAs or dsRNAs. A range of NRSF/REST protein concentrations was tested; the highest one tested produced a shift in dsDNA migration, whereas a 16-fold lower concentration of NRSF/REST protein was enough to produce a shift in dsRNA (FIG. 6C). […] Binding of NRSF/REST to the sequence of the MCS control dsRNAs or dsDNAs was not observed. […] This highly specific binding between NRSE dsRNA and NRSF/REST protein may contribute to a functional switch of the NRSF/REST machinery from transcriptional repressor to activator.

Sequence of Bovine serum albumin (P02769 25-607, one chain of several): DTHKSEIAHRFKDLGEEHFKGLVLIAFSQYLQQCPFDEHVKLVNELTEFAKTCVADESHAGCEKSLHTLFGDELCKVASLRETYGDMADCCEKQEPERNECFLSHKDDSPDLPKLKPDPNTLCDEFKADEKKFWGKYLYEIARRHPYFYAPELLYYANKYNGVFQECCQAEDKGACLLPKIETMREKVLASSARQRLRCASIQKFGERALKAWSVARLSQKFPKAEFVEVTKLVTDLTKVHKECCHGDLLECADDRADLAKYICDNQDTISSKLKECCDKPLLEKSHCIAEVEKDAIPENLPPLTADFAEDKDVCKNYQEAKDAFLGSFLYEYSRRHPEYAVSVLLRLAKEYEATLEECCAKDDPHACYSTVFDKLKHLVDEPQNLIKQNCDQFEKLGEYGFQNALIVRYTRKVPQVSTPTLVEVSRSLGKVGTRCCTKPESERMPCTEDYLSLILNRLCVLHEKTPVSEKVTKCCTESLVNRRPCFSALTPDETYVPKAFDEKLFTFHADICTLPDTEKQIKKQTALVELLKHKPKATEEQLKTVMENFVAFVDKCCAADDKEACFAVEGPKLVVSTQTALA

Row | Binder | binding result
1 | B1 | no binding
2 | B2 | no binding

Reference: patent publication US20050226848, “Transcriptional regulation of gene expression by small double-stranded modulatory RNA” (published 2005)
